Assay results: article PMC8264304

System: MexR (CSP18) (Pseudomonas aeruginosa clinical isolate CSP18)
Assay: MST
Conditions: MST: 10 mM Tris, 1 mM DTT, room temperature

Question: Which Kd does the source give for mexR-mexA intergenic region here?
Answer: 1.1 µM
